In patent US20160279215A1, “NOVEL PEPTIDES AND COMBINATION OF PEPTIDES FOR USE IN IMMUNOTHERAPY AGAINST VARIOUS TUMORS” (immatics biotechnologies GmbH, priority 2015, published 2016) one finds Peptide exchange data, which are given here for 54 substances.

For this test, the target named is T1, HLA-A*02:01 (Homo sapiens, UniProt P04439, D140Y/D185E/D98H/E176V/E277Q/G131W/G231S/I119V/I121R/I166T/I218V/L300P/L318F/N151K/N90K/P208A/P217A/Q86G/Q94H/R138H/R169H/T345S).
T1 construct: made in house
Put plainly: MHC binding assay: UV-ligand exchange with β2m ELISA (peptide exchange yield). Particulars: binding to HLA-A*02:01 evaluated by peptide exchange yield (UV-ligand exchange, β2m ELISA). The source says: Candidate peptides for T cell based therapies according to the present invention were further tested for their MHC binding capacity (affinity). The individual peptide-MHC complexes were produced by UV-ligand exchange, where a UV-sensitive peptide is cleaved upon UV-irradiation, and exchanged with the peptide of interest as analyzed. Only peptide candidates that can effectively bind and stabilize the peptide-receptive MHC molecules prevent dissociation of the MHC complexes. To determine the yield of the exchange reaction, an ELISA was performed based on the detection of the light chain (β2m) of stabilized MHC complexes. The assay was performed as generally described in Rodenko et al. (Rodenko et al., 2006).
96 well MAXISorp plates (NUNC) were coated over night with 2 ug/ml streptavidin in PBS at room temperature, washed 4× and blocked for 1 h at 37° C. in 2% BSA containing blocking buffer. Refolded HLA-A*02:01/MLA-001 monomers served as standards, covering the range of 15-500 ng/ml. Peptide-MHC monomers of the UV-exchange reaction were diluted 100 fold in blocking buffer. Samples were incubated for 1 h at 37° C., washed four times, incubated with 2 ug/ml HRP conjugated anti-β2m for 1 h at 37° C., washed again and detected with TMB solution that is stopped with […]. Absorption was measured at 450 nm. Candidate peptides that show a high exchange yield (preferably higher than 50%, most preferred higher than 75%) are generally preferred for a generation and production of antibodies or fragments thereof, and/or T cell receptors or fragments thereof, as they show sufficient avidity to the MHC molecules and prevent dissociation of the MHC complexes.
(In an ELISA, binding on a coated surface is turned into a signal by an enzyme label.)
Regarding “91 (LLPSIFLMV; listed as Homo sapiens) [compound 91]”, the Peptide exchange entry is on record as “++ (≧20% = ++)”. As for “93 (RLYGYFHDA; listed as Homo sapiens) [compound 93]”, the Peptide exchange result is “++ (≧20% = ++)”.

For “94 (YLDEVAFML; listed as Homo sapiens) [compound 94]”, the Peptide exchange entry is recorded as “+++ (≧50 = +++)”. As to “95 (KLIDEDEPLFL; listed as Homo sapiens) [compound 95]”, the Peptide exchange entry is “+++ (≧50 = +++)”. The same measure for “96 (ALDTTRHEL; listed as Homo sapiens) [compound 96]”: “++ (≧20% = ++)”; for “98 (FVQEKIPEL; listed as Homo sapiens) [compound 98]”: “+++ (≧50 = +++)”. The same measure for “99 (TLFGIQLTEA; listed as Homo sapiens) [compound 99]”: “+++ (≧50 = +++)”; for “100 (ALQSFEFRV; listed as Homo sapiens) [compound 100]”: “+++ (≧50 = +++)”. The same measure for “103 (YLADTVQKL; listed as Homo sapiens) [compound 103]”: “++ (≧20% = ++)”. Consider “105 (AMLASQTEA; listed as Homo sapiens) [compound 105]”, for which the Peptide exchange result was “++ (≧20% = ++)”. Turning to “106 (VLLGSVVIFA; listed as Homo sapiens) [compound 106]”, the Peptide exchange result is recorded as “++ (≧20% = ++)”. The result for “107 (RVLPGQAVTGV; listed as Homo sapiens) [compound 107]” reads “++ (≧20% = ++)”; that for “108 (FIANLPPELKA; listed as Homo sapiens) [compound 108]”, “+++ (≧50 = +++)”; that for “109 (ILGSFELQL; listed as Homo sapiens) [compound 109]”, “+++ (≧50 = +++)”. As to “110 (QIQGQVSEV; listed as Homo sapiens) [compound 110]”, the Peptide exchange entry is “++ (≧20% = ++)”. The result for “111 (AQLEGKLVSI; listed as Homo sapiens) [compound 111]” reads “+++ (≧50 = +++)”; that for “112 (ILAQDVAQL; listed as Homo sapiens) [compound 112]”, “+++ (≧50 = +++)”; that for “113 (FLFLKEVKV; listed as Homo sapiens) [compound 113]”, “++ (≧20% = ++)”. The same measure for “114 (LLFPSDVQTL; listed as Homo sapiens) [compound 114]”: “++ (≧20% = ++)”. The same measure for “115 (ILHGEVNKV; listed as Homo sapiens) [compound 115]”: “++ (≧20% = ++)”; for “116 (ALLSSVAEA; listed as Homo sapiens) [compound 116]”: “++ (≧20% = ++)”.

With “119 (SLIEESEEL; listed as Homo sapiens) [compound 119]”, the Peptide exchange result is “++ (≧20% = ++)”.

With “122 (SIIDTELKV; listed as Homo sapiens) [compound 122]”, the Peptide exchange entry is reported as “+++ (≧50 = +++)”. On to “123 (QTAPEEAFIKL; listed as Homo sapiens) [compound 123]”, for which the Peptide exchange result was “+ (≧10% = +)”. The result for “124 (ALLLRLFTI; listed as Homo sapiens) [compound 124]” reads “++ (≧20% = ++)”; that for “125 (AALEVLAEV; listed as Homo sapiens) [compound 125]”, “+++ (≧50 = +++)”; that for “126 (QLREAFEQL; listed as Homo sapiens) [compound 126]”, “+++ (≧50 = +++)”. For the substance “128 (SILTNISEV; listed as Homo sapiens) [compound 128]”, the Peptide exchange result is “++ (≧20% = ++)”. Turning to “129 (KMASKVTQV; listed as Homo sapiens) [compound 129]”, the Peptide exchange entry is “++ (≧20% = ++)”.

For “130 (QLYGSAITL; listed as Homo sapiens) [compound 130]”, the Peptide exchange result is “+++ (≧50 = +++)”. The same measure for “131 (SLYPHFTLL; listed as Homo sapiens) [compound 131]”: “+++ (≧50 = +++)”; for “132 (ALLNNVIEV; listed as Homo sapiens) [compound 132]”: “+++ (≧50 = +++)”. The result for “133 (FLDGRPLTL; listed as Homo sapiens) [compound 133]” reads “++ (≧20% = ++)”; that for “134 (SLYKSFLQL; listed as Homo sapiens) [compound 134]”, “++ (≧20% = ++)”; that for “136 (LLWDAPAKC; listed as Homo sapiens) [compound 136]”, “+++ (≧50 = +++)”. With “137 (KLIYKDLVSV; listed as Homo sapiens) [compound 137]”, the Peptide exchange entry was “++ (≧20% = ++)”. The same measure for “138 (GIINKLVTV; listed as Homo sapiens) [compound 138]”: “++ (≧20% = ++)”; for “139 (IILENIQSL; listed as Homo sapiens) [compound 139]”: “+++ (≧50 = +++)”. The result for “140 (FLDSQITTV; listed as Homo sapiens) [compound 140]” reads “+++ (≧50 = +++)”; that for “141 (NIDINNNEL; listed as Homo sapiens) [compound 141]”, “++ (≧20% = ++)”; that for “142 (LLDAAHASI; listed as Homo sapiens) [compound 142]”, “++ (≧20% = ++)”.

Take “143 (MLWESIMRV; listed as Homo sapiens) [compound 143]”: the Peptide exchange result was “+++ (≧50 = +++)”. Consider “144 (FLISQTPLL; listed as Homo sapiens) [compound 144]”, for which the Peptide exchange result was “+++ (≧50 = +++)”. “145 (ALEEKLENV; listed as Homo sapiens) [compound 145]”: the Peptide exchange result is “+++ (≧50 = +++)”. The same measure for “146 (VVAAHLAGA; listed as Homo sapiens) [compound 146]”: “++ (≧20% = ++)”. The same measure for “147 (GLLSALENV; listed as Homo sapiens) [compound 147]”: “+++ (≧50 = +++)”; for “148 (YLILSSHQL; listed as Homo sapiens) [compound 148]”: “+++ (≧50 = +++)”. Take “149 (NMADGQLHQV; listed as Homo sapiens) [compound 149]”: the Peptide exchange result was “++ (≧20% = ++)”. The result for “150 (VLLDMVHSL; listed as Homo sapiens) [compound 150]” reads “+++ (≧50 = +++)”; that for “151 (DISKRIQSL; listed as Homo sapiens) [compound 151]”, “++ (≧20% = ++)”. Regarding “153 (KLVELEHTL; listed as Homo sapiens) [compound 153]”, the Peptide exchange result is “+++ (≧50 = +++)”. The result for “154 (AIIKEIQTV; listed as Homo sapiens) [compound 154]” reads “++ (≧20% = ++)”; that for “155 (TLDSYLKAV; listed as Homo sapiens) [compound 155]”, “++ (≧20% = ++)”; that for “158 (YLDPLWHQL; listed as Homo sapiens) [compound 158]”, “+++ (≧50 = +++)”.
